Experimental data as given in PMC8918821.

How the values were obtained:
[1] = target: cardiac sodium channel NaV1.5 α subunit of human origin (adult isoform) (human) (UniProt Q14524)
[2] = target: cardiac sodium channel NaV1.5 α subunit of human origin (adult isoform) (human) (UniProt Q14524); remark: listed apart in the source
[3] = target: cardiac sodium channel NaV1.5 α subunit of human origin (adult isoform) (human) (UniProt Q14524); remark: listed apart in the source

Chain of UniProt Q14524 (Q14524 whole entry, canonical isoform): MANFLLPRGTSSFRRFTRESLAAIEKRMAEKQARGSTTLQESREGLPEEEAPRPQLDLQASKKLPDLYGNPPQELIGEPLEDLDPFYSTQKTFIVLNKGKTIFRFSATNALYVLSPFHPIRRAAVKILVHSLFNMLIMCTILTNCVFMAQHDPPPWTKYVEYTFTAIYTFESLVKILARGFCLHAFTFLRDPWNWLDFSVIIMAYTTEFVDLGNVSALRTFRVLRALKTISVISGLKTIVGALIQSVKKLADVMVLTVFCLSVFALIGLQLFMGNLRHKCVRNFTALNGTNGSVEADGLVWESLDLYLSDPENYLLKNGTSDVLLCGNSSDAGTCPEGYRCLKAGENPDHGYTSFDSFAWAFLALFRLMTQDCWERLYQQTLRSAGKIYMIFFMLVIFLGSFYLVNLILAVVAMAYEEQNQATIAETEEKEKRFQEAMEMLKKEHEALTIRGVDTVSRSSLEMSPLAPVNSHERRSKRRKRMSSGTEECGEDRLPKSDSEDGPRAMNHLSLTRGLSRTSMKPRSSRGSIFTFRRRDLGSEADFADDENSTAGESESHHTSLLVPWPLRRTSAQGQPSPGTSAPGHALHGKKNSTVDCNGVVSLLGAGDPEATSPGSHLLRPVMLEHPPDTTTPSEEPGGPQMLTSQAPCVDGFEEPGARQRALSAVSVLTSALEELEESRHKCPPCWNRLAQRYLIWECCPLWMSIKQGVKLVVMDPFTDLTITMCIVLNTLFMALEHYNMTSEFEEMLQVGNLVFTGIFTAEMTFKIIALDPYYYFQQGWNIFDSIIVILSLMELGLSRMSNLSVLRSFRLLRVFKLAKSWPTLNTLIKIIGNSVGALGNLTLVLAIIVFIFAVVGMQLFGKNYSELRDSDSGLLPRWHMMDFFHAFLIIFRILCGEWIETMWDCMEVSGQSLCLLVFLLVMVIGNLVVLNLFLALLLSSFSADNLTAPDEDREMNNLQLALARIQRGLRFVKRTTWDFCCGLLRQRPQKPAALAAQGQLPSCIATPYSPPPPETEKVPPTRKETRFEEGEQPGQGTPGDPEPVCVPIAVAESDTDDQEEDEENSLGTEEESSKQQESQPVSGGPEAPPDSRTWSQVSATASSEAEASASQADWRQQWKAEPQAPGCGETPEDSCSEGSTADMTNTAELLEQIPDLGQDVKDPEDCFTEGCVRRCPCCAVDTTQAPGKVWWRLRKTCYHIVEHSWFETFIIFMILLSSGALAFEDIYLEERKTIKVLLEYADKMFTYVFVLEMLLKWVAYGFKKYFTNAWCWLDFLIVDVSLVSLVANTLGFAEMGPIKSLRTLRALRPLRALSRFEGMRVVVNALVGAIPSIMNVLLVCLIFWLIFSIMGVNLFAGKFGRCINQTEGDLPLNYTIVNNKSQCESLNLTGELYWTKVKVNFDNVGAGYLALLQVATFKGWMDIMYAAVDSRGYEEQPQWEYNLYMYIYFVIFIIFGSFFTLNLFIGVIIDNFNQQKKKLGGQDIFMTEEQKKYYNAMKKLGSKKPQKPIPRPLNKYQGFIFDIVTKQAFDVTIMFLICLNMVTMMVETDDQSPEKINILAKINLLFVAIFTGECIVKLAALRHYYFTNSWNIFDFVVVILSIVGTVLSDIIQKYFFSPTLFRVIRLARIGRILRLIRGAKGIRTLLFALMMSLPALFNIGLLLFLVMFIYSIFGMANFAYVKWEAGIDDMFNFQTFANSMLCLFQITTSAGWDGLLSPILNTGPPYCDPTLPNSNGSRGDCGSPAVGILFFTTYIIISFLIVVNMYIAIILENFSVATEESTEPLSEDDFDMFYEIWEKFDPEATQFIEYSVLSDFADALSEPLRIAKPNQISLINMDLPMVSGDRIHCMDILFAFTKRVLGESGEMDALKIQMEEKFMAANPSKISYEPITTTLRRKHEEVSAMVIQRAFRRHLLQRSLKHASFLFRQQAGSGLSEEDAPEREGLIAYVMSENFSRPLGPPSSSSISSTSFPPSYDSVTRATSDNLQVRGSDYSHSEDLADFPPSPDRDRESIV

Substance: AahII toxin from Androctonus australis Hector (from UniProt P01484 20-85) (natural protein)
- whole-cell patch clamp: tau of NaV1.5 after AahII 75 nM for 7 min followed by 75 nM AahII + 75 nM Nb10 (1:1) up to 14 min [1]: 4.7 ms
- whole-cell patch clamp on HEK293 cells expressing NaV1.5: factor by which inactivation is slowed against control, [AahII] 75, 150 and 300 nM [2]: 35 fold
- whole-cell patch clamp: inactivation time constant (tau) of NaV1.5 after washout of AahII (75 nM) with control solution [2]: 5.2 ms
- whole-cell patch clamp: tau of NaV1.5 after AahII 75 nM for 7 min followed by 75 nM Nb10 alone until 14 min [3]: 4.6
- whole-cell patch clamp: tau of NaV1.5 with AahII 75 nM perfused for 7 min, before Nb10 alone [3]: 9.6 ms
